Publication PMC9975078

Target: Heterogeneous nuclear ribonucleoprotein A2/B1 (HNRNPA2B1), endogenous (human (endogenous in U2OS))
Sequence (P22626 whole entry): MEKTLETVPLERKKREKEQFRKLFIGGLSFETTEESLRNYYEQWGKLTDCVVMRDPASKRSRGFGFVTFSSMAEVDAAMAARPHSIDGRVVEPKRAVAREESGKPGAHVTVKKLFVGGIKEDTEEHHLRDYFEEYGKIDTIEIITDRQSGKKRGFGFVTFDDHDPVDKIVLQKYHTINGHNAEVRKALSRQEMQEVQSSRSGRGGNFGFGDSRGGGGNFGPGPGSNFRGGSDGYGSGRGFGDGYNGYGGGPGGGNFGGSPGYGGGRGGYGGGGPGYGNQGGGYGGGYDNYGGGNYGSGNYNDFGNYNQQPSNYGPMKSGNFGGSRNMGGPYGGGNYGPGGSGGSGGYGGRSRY

Replication Protein A subunit RPA70 (RPA1), endogenous (from UniProt P27694 1-616) (natural protein)
percent of RPA1 bound by HNRNPA2B1: 43%
